Measured values: US20260069728A1, “MULTI-TARGETING COMPOUND AND USE THEREOF” (Chengdu Shetai Medical Technology Co., Ltd., priority 2023, published 2026)
Like-named read-outs stand apart in the source and are kept apart here. *1 amine or outer side, *2 acyl side, *3 side chain or, on linkers, in order; H or OH if unused. Where a SMILES comes first, the peptide text is derived from it. Bridges are numbered along the chain shown (N, C = ends). [ ]: non-standard residue; d: D form. The star is where a group is joined. X1 = N#C[C@@H]1CC(F)(F)CN1C(=O)CNC(=O)c1ccnc2ccc(OCCCN3CCN(*)CC3)cc12; DOTA = O=C(O)CN1CCN(CC(=O)O)CCN(CC(=O)*)CCN(CC(=O)O)CC1; 2Nal = N[C@@H](Cc1ccc2ccccc2c1)C(=O)O; Cit = NC(=O)NCCC[C@H](N)C(=O)O; Suc = O=C(CCC(=O)[*:2])[*:1]; AEEA = NCCOCCOCC(=O)O

Columns and labels:
[1] = Stability of radioligands in PBS buffer (radio-HPLC); format: physicochemical
[2] = system: subcutaneous xenograft tumors (U87 MG cells); experiment: Small animal PET imaging and biodistribution study; format: in vivo, NSG mice
Method in brief: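 NSG mice bearing ~150 mm^3 subcutaneous U87 MG tumours received ~7.4 MBq of 68Ga-labelled tracer i.v., with micro-PET/CT static 20-min 3D scans at 30, 60 and 120 min. For biodistribution, mice were euthanised at 30/60/120 min, or 30/60/90 min for SDYD07, SDYD08 and SDYD07-1. Tissue radioactivity was decay-corrected and expressed as SUV and %ID/g.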

[3] = PBS buffer pH=7.4, 37° C., 0.5 hours
[4] = PBS buffer pH=7.4, 37° C., 1 hour
[5] = PBS buffer pH=7.4, 37° C., 2 hours

N#C[C@@H]1CC(F)(F)CN1C(=O)CNC(=O)c1ccnc2ccc(OCCCN3CCN(C(=O)CCC(=O)N[C@@H](CCCCNC(=O)CN4CCN(CC(=O)O)CCN(CC(=O)O)CCN(CC(=O)O)CC4)C(=O)NCCOCCOCC(=O)NCCOCCOCC(=O)N[C@@H](CCCNC(=N)N)C(=O)N[C@@H](CCCNC(=N)N)C(=O)N[C@@H](Cc4ccc5ccccc5c4)C(=O)N[C@H]4CSSC[C@@H](C(=O)N[C@@H](CCCNC(=N)N)C(N)=O)NC(=O)[C@H](CCCNC(N)=O)NC(=O)[C@H](CCCNC(=N)N)NC(=O)[C@H](Cc5ccc(O)cc5)NC(=O)[C@@H]5CCCN5C(=O)[C@H](CCCCN)NC(=O)[C@H](CCCCN)NC(=O)[C@H](CCCNC(N)=O)NC(=O)[C@H](Cc5ccc(O)cc5)NC4=O)CC3)cc12 [^68Ga-SDYD01, metal not drawn] ({X1-Suc}-K(DOTA)[AEEA][AEEA]RR[2Nal]CY[Cit]KKPYR[Cit]CR-NH2; disulfide 7-16)
stability in PBS buffer (in words) [1]: quite stable in PBS buffer | radiochemical purity after incubation in PBS [1, 3]: 98% | radiochemical purity after incubation in PBS [1, 4]: 97% | radiochemical purity after incubation in PBS [1, 5]: 97% | radioactive uptake in the tumor sites (in words) ([2]; mouse, in vivo): significant radioactive uptake in the tumor sites

CCCCCC(=O)N[C@H]1CSCc2cc(CSCCNC(=O)[C@H](CCCCNC(=O)CN3CCN(CC(=O)O)CCN(CC(=O)O)CCN(CC(=O)O)CC3)NC(=O)COCCOCCNC(=O)COCCOCCNC(=O)CCN3C(=O)CC(SCCNC(=O)CCC(=O)NCc4ccc(NC(=O)COCC(=O)N[C@H](Cc5ccccc5)C(=O)N[C@@H](CCC(N)=O)C(=O)N[C@@H](Cc5c[nH]c6ccccc56)C(=O)N[C@@H](C)C(=O)N[C@H](C(=O)NCC(=O)N[C@@H](Cc5c[nH]cn5)C(=O)NC(CC(C)C)CC(C)C)C(C)C)cc4)C3=O)cc(c2)CSC[C@@H](C(=O)O)NC(=O)[C@H](Cc2ccccc2)NC(=O)[C@H](CCC(N)=O)NC(=O)C([C@@H](C)O)NC(=O)[C@@H]2CCCN2C(=O)[C@@H]2CCCN2C1=O (stereo partly shown) [^68Ga-SDYD04, metal not drawn]
stability in PBS buffer (in words) ([1]; PBS buffer pH=7.4, 37° C.): quite stable in PBS buffer | radiochemical purity after incubation in PBS [1, 3]: 97% | radiochemical purity after incubation in PBS [1, 4]: 97% | radiochemical purity after incubation in PBS [1, 5]: 95% | radioactive uptake in the tumor sites (in words) ([2]; tail vein injection, U87 MG tumor-bearing NSG mice): significant radioactive uptake in the tumor sites
